According to patent US20230002460A1 (YUHAN, published 2023):
Positions count from the first letter of the chain named. In names and notes the source's numbering stands.

B1: long-acting GDF15 fusion protein (dimer) FWT + Fc_hole (ΔN2) (Fc fusion)
chain 1: APALAGGPSVFLFPPKPKDTLMISRTPEVTCVVVDVSHEDPEVKFNWYVDGVEVHNAKTKPREEQYNSTYRVVSVLTVLHQDWLNGKEYKCKVSNKALPAPIEKTISKAKGQPREPQVYTLPPSREEMTKNQVSLWCLVKGFYPSDIAVEWESNGQPENNYKTTPPVLDSDGSFFLYSKLTVDKSRWQQGNVFSCSVMHEALHNHYTQKSLSLSPGKGGGGSGGGGSGGGGSGGGGSGGGGSNGDHCPLGPGRCCRLHTVRASLEDLGWADWVLSPREVQVTMCIGACPSQFRAANMHAQIKTSLHRLKPDTVPAPCCVPASYNPMVLIQKTDTGVSLQTYDDLLAKDCHCI
chain 2: not shown
B2: long-acting GDF15 fusion protein (dimer) FM4 + Fc_hole (ΔN2, N56C, D103C) (Fc fusion)
chain 1: B1 chain 1 with N296C, D343C
chain 2: not shown
B3: long-acting GDF15 fusion protein (dimer) FM15 + Fc_hole (ΔN2, S64E) (Fc fusion)
chain 1: B1 chain 1 with S304E
chain 2: not shown
B4: long-acting GDF15 fusion protein (dimer) FM13 + Fc_hole (ΔN2, S64N) (Fc fusion)
chain 1: B1 chain 1 with S304N
chain 2: not shown
B5: long-acting GDF15 fusion protein (dimer) FM9 + Fc_hole (ΔN2, S64R) (Fc fusion)
chain 1: B1 chain 1 with S304R
chain 2: not shown
B6: long-acting GDF15 fusion protein (dimer) FM14 + Fc_hole (ΔN2, S64D) (Fc fusion)
chain 1: B1 chain 1 with S304D
chain 2: not shown

The binders below were run against T1, GDF15 receptors GFRAL and RET, overexpressed together on HEK293 cells (UniProt Q6UXV0 19-394; P07949 29-1114, limits assumed) (assay: cell-based or functional assay).
T1 sequence (Q6UXV0 19-394 limits assumed, chain 1 of 2): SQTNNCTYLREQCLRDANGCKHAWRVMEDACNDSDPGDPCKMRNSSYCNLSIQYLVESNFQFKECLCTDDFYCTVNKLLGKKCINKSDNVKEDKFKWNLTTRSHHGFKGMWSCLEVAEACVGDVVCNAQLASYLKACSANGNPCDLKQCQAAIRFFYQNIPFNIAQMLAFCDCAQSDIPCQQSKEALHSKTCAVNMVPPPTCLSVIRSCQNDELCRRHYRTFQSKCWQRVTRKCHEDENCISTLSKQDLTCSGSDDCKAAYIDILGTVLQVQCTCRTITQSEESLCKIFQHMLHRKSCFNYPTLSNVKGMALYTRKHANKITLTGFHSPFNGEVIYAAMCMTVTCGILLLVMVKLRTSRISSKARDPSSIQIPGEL
T1 sequence (P07949 29-1114 limits assumed, chain 2 of 2): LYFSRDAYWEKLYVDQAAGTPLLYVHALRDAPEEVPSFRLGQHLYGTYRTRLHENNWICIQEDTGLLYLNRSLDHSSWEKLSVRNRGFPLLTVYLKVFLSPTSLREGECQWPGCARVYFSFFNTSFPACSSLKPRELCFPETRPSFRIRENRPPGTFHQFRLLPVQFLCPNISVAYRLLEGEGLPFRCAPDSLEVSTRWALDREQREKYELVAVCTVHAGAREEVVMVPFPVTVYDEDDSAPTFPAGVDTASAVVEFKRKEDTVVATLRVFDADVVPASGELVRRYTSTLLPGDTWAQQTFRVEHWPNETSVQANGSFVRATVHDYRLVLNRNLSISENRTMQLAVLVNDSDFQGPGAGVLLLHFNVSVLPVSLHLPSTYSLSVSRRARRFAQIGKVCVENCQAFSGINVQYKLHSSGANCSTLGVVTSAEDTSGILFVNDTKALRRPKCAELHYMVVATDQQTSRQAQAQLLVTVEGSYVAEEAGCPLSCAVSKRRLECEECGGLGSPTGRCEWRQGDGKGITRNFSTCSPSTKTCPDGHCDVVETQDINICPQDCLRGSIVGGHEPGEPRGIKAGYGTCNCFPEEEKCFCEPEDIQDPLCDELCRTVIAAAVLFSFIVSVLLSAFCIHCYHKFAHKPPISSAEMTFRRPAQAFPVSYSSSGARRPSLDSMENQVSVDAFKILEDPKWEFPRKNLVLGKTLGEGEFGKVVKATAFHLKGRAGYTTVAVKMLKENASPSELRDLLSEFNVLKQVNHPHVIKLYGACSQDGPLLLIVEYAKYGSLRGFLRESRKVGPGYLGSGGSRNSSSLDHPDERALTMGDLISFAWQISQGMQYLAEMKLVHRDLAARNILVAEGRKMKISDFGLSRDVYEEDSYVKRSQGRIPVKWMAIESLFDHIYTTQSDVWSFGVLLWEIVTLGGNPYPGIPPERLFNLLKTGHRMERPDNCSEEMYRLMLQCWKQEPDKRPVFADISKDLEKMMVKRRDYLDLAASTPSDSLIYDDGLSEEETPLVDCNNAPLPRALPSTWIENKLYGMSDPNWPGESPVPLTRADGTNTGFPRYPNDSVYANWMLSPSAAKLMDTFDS

Binder	EC50 [nM]	Emax (%) [relative to FWT 100%] [%]
B1	7	100
B2	3.4	133

Molecular target: T1, GDF15 receptors GFRAL and RET, …
Assay: cell-based or functional assay
Remark: another data set of the same source

Binder	EC50 [nM]	Emax (%) [relative to FWT 100%] [%]
B1	5.4	100
B2	3.6	140

Molecular target: T1, GDF15 receptors GFRAL and RET, …
Assay: cell-based or functional assay
Remark: another data set of the same source

Binder	EC50 [nM]	Emax (%) [relative to FWT 100%] [%]
B1	7.3	100
B3	33.6	41
B4	9.6	93.3
B5	5	123
B6	7.9	48.2
